From the nanobody polyreactivity screen of Harvey et al. (2022)

test: yeast display, Sf9 membrane polyspecificity reagent, FACS + sequencing; frameworks hold sequencing errors
Method in brief: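 Nanobodies came from a synthetic yeast display library in Saccharomyces cerevisiae BJ5465, induced with galactose for 36–48 hours and stained for 1 hour at 4 °C with 10% biotinylated, detergent-solubilized Sf9 membrane reagent. Cells were enriched on streptavidin microbeads and then FACS-sorted, with low and high (top ~1%) gates set on anti-HA fluorescence for expression and streptavidin fluorescence for reagent binding. Each polyreactivity label reflects the gate a clone came from. Genes were amplified by colony PCR, sequenced by MiSeq 2 × 250 and filtered by CDR length.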

Sequence	polyreactivity (PSR sort gate)
QVQLVESGGGLVQAGGSIRLSCAASGRTFGQNPMGWYRQAPGKERELVAVITRGGSTNYADSVKGRFTISRDNAKNTVYLQMNSLKPEDTAVYYCAADYTAYGYDYWGQGTQVTVSS	low polyreactivity
QVQLVESGGGLVQAGGSLRLSCAASGRIFGAYARGWYRQAPGKERELVAAITSAGSTHYADSVKGRFTISRDNAKNTVYLQMNSLKPEDTAVYYCAADGIARAYVLFDAYDFLYDYWGQGTQVSVSS	low polyreactivity
QVQLVESGGGLVQAGGSLRLSCAASGFTFARYAMGWYRQAPGKERELVAAISRGTTTYYADSVKGRFTISRDNAKNTVYLQMNSLKPEDTAVYYCAARAVSEYFVVPFYYWGQGTQVTVSS	high polyreactivity
QVQLVESGGGLVQAGGSLRLSCAASGSTFVYNALGWDRQAPGKERELVAAITRRGGTTYYADSVKGRFTMSRDNAKNTVYLQMNSLKQEDTAVYYCAARTRGTAYNYSGQGTQVTVSS	high polyreactivity
QVQLVESGGGLVQAGGSLRLSCAASGRIFLGNAMGWYRPAPGKERELVAAITNGGGSTYYADSVNGRFTISRDNAKNTVYLQMNSLKPEDTAVYYCAAQRWTVKYNYWGQGTQVTVSS	high polyreactivity
QVQLVESGGGLVQAGGSLRLSCAASGSIFRVYAMGWYRQAPGKERELVATISGSAGRTYYADSVKGRFTISRDNAKNTVYLQMNSLKPEDTAVYYCAARWYKEYYWGQGTQVTVSS	high polyreactivity
QVQLVESGGGLVQAGGSLRLSCAASGSIFKSYAMGWYRQAPGKERELVAAISWSGTSTYYADSVKGRFTISRDHAKNTVYLQMNSLKPEDTAVYYCAASGDYGEYGYWGQGTQVTVSS	low polyreactivity
QVQLVESGGGVVQAGGSLRLSCAASGFIFEYYPMGWYRPAPGKERELVAAISWSGGSTYYADSVKGRFTISRDNAKNTVYLQMNSLKPEDTAVYYCAAGRYFHHPTSYYYWGQGTQVTVSS	high polyreactivity
QVQLVESGGGLVQAGGSLRLSCAASGRIFRRYAMGWYRQAPGKERELVAAITRSGGSTYYADSVKGRFTISRDNAKNTVYLQMNSLKPEDTAVYYCNAPSSLGTDYDYWGQGTQVTVSS	high polyreactivity
QVQLVESGGGLVQAGGSLRLSCAASGSNFARYAMGWYRQAPGKERELVAAINSTVSTNYADSVNGRFTISRDNPKNTVYLQMNSLKPEDTAVYYCAVDIVRGGRDSWGQGTQVTVSS	low polyreactivity
QVQLVESGGGLVQAGGSLRLSCAASGSTFRINAMGWYRQAPGKERELVADINSGGNTTYADSVKGRFTISRDNAKNTVYLQMNSLKPEDTAVYYCAADPVFDLWEFLLDYGYDYWGQGTQVTVSS	low polyreactivity
QVQLVESAGGLVQAGGSLRLTCDASGSTFGYYAMGLYRQAPGKEMELVAAITSNDGSTNYADSVKGRFTISRDNAKNTVYLQMNSLKPEDTAVYYCNARYFVAVISSFDYWGQGTQVTVSS	low polyreactivity
QVQHVESGGGLVQAGGSHRLSCAASGRIFPWNTMGRYRQAPGKERELVAGITSGGSTNYADSVKGRFTISRDNAKNTVYLQMKSLKPEDTAVYYCNRDSVGYDYWGQGTQVTVSS	low polyreactivity
QVQLVESGGGLVQAGGSLRLSCAASGRTFPYYAMGWYRQAPGKERELVAAITSGGSTYYADSVKGRFTISRDNAKNTVYLQMNSLKPEDTAVYYCNALLGYYRWRRPVDYSYGSWGQGTQVTVSS	high polyreactivity
QVQLVETGGGLVQAGGSLRLSCAASGRIFLKYAMGWYRQAPGKERELVAAISRRGASTYYADSVKGRFTISRDNAKNTVYLQMNSLKPEDTAVYYCNARTSSGMDYWGQGTQVTVSS	high polyreactivity
QVQLVESGGGLVQAGGSLRLSCADSGSTFFRYAMGWYRQAPGKERELVAAISKSGASTYYADSVKGRFTISRDNAKNTVYLQMNSLKPEDTAVYYCNADVKKSSAREWQYGYDYWGQGTQVTVSS	low polyreactivity
QVQLVESGGGLVQAGGSLRLSCAASGSTFTYYAMGWYRQAPGKERELVAAITRRGGSTYYADSVKGRFTISRDNAKNTVYLQMNSLIPEDTAVYYCAKSTQIRAYIWDPYRISTYGYWGQGTQVTVSS	high polyreactivity
QVQLVESGGGLVQAGGSLRLSCAASGSTFDANDMGWYRQAPGKERELVAAITIGGGSTYYADSVKGRFTISRDNAKNTVYLQMNSLKPEDTAVYYCAKDDHTGVHTYPVDYWGQGTQVTVSS	low polyreactivity
QVQLVESGGGLVQAGGSLRLSCAASGRTFSVNAMGWYRQAPGKERELVAAISWDGGSTYYADSVKGRFTISRDNAKNSVYLQMNSLKPEDTAVYYCNKDLYYAYDYWGQGTQVTVSS	low polyreactivity
QVQLVESGGGLVQAGGSLRLSCAASGSTFDYYDMGWYRQAPGKERELVATVTSGGSTNYADSVKGRFTISRDNAKNTVYLQMNSLKPEDTAVYYCAADIGGDGEGYDYWGQGTQVTLSS	low polyreactivity
QVQLVESGGGLVQAGGSLRLSSAPSGFTFDENAMGWYRQAPGINYSGASTYYADSVKGRFTISRDNAKNTVYLQMNSLKPEDTAVYYCAAEVVAQMNYWGQGTQVTVSS	low polyreactivity
QVQLVESGGGLVQAGGSLRLSCAASGSTFPSYAMGWYRQAPGKERELVAAISGSGTSTYYADSVKGRFTISRDNAKNTVYLQMNSRKPEDTAVYYCRAVWLSTYLGWGRDYWGQGTQVTVSS	high polyreactivity
QVQLVESGGGLVQAGGSLRLSCAASGSISDVYAMGWYRQAPGKERELVAAITSGASTYYADSVKGRFTISRDNAKNTVYLQMNSLKPEDTAVYYCAADSDSQWGMDYWGQGTQVTVSS	low polyreactivity
QVQLVESGGGLVQAGGSLRLSCAASGFTITYNAMGWYRKAPGKEREFVAAITNNGSTYYADSVKGRFTISRDNAKNTVYLQMNSLKPEDTAVYFCAVDPGYYDEYNYWGQGTQVTVSS	low polyreactivity
QVQLVESGGGLVQAGGSLRLSCAASGSTFAYYAMGWYRQAPGKERELVAVISVSGDGTSTYYADSVKGRFTISRDNAKNTVYLQMNSLKPEDSAVYYCAAEQVLVGGHTYSLTYDYWGQGTQVTVSS	low polyreactivity
QVQLVESGGGLVQAGGSLRLSCAASGLIFKYNVMGWYRQAPGKERELVAAITKRGGSTYYADSVKGRFTISRDNAKNTVYLQMNSLKPEDTAVYYCAARPVNTVRPFDYWGQGTQVTVSS	high polyreactivity
QVQLVESGGGLVQAGGSLRLSCAASGRTFLINAMGWYRQAPGKERELVADITGRGSSTYYADSVKGRFTISRDNAKNTVYLQMNSLKPEDTAVYYCNAVLRKITYDYWGQGTQVTVSS	high polyreactivity
QVQLVESGGGLVQAGGSLRLSCAASGGTFGRYTMGWYRQAPGKERELVATITIGGGTNYADSVKGRFTISRDNAKNTVYLQMNSLKPEDTAVYYCARAWRWRCRYYEYGYWGQGTQVTVSS	high polyreactivity
QDQLVESGGGLVQAGGSLRLTCAASGSIIVRYAMGWYRQAPGKERELVASISKRGGSTYYADSVKGRFTISRDNAKNTVYLQMNSLKPEDTAVYYCAAVGYYLVKFDYWGQGTQVTVSS	high polyreactivity
QVQLVESGGGLVQAGGSLRLSCAASGYIFSYYAMGWYRQAPGKERELVAAITSSGGRTYYADSVKGRFTISRDNAKNTVYLQMNSLKPEDTAVYYCNRDYSSYDTEDYWGQGTQVTVSS	high polyreactivity
